± gives the uncertainty stated by the source.

A short description of this series: self-splicing fitness, log relative to wild type (ln ratio); higher = more splicing; Tetrahymena group I intron in knt gene, E. coli kanamycin selection, DiMSum; sequences stand for … in CUCUCU…GGAGGGAAAAGUUAUCAGGCAUGCACCUGGUAGCUAGUCUUUAAACCAAUAGAUUGCAUCGGUUUAAAAGGCAAGACCGUCAAAUUGCGGGAAAGGGGUCAACAGCCGUUCAGUACCAAGUCUCAGGGGAAACUUUGAGAUGGCCUUGCAAAGGGUAUGGUAAUAAGCUGACGGACAUGGUCCUAACCACGCAGCCAAGUCCUAAGUCAACAGAUCUUCUGUUGAUAUGGAUGCAGUUCACAGACUAAAUGUCGGUCGGGGAAGAUGUAUUCUUCUCAUAAGAUAUAGUCGGACCUCUCCUUAAUGGGAGCUAGCGGAUGAAGUGAUGCAACACUGGAGCCGCUGGGAACUAAUUUGUAUGCGAAAGUAUAUUGAUUAGUUUUGGAGUACUCGUGGUCG
In a few lines:
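Library with all eight P1ex-region intron nucleotides randomised, intron inside the knt kanamycin-resistance gene on pET-22b(+), in E. coli BL21(DE3). Cells grew overnight at 37°C or 30°C on LB agar with or without 25 μg/mL kanamycin (plus 100 μg/mL carbenicillin, 50 μM IPTG, 0.2% rhamnose), in six replicate transformations. Pooled colonies were amplicon-sequenced on Illumina HiSeq 2500. DiMSum fitness is the error-weighted combination of wild-type-normalised replicate fold changes, kanamycin versus none.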

Regarding CAUUAGCAAUAUUACGCAGU, the “self-splicing fitness (ln)” value was -3.73 ± 0.18 (30 °C) and -2.77 ± 0.22 (37 °C).

Regarding UUCAAGCAAUAUUACGUGUA, the “self-splicing fitness (ln)” value reads like this: (30 °C) -1.11 ± 0.056; (37 °C) -0.453 ± 0.059.

As for CCACAGCAAUAUUACGGUCA, the “self-splicing fitness (ln)” value is, setting by setting: (30 °C) -3.27 ± 0.21; (37 °C) -3.22 ± 0.34.

Consider GUGCAGCAAUAUUACGGUAG, for which the “self-splicing fitness (ln)” value runs as follows: (30 °C) -1.05 ± 0.057; (37 °C) -0.428 ± 0.074.

GCACAGCAAUAUUACGUAGU: the “self-splicing fitness (ln)” value is -0.976 ± 0.057 (30 °C) and -0.516 ± 0.072 (37 °C).

As to UUGUAGCAAUAUUACGGACA, the “self-splicing fitness (ln)” value reads like this: (30 °C) -1.61 ± 0.31; (37 °C) -0.454 ± 0.39.

Regarding CCGUAGCAAUAUUACGAAAC, the “self-splicing fitness (ln)” value (30 °C) is -2.61 ± 0.41 and the “self-splicing fitness (ln)” value (37 °C) was -0.972 ± 0.29.

Turning to UCUCAGCAAUAUUACGGCGC, the “self-splicing fitness (ln)” value is, setting by setting: (30 °C) -2.56 ± 0.22; (37 °C) -1.78 ± 0.31.

On to ACAUAGCAAUAUUACGAGCG, for which the “self-splicing fitness (ln)” value runs as follows: (30 °C) -0.74 ± 0.12; (37 °C) -0.0992 ± 0.12.

In the case of UUAGAGCAAUAUUACGUGAU, the “self-splicing fitness (ln)” value (30 °C) is -3.95 ± 0.28 and the “self-splicing fitness (ln)” value (37 °C) is -2.52 ± 0.22.

As to AGCGAGCAAUAUUACGCAGA, the “self-splicing fitness (ln)” value runs as follows: (30 °C) -2.67 ± 0.24; (37 °C) -2.88 ± 0.24.

With UACAAGCAAUAUUACGCUAU, the “self-splicing fitness (ln)” value was -3.38 ± 0.13 (30 °C) and -1.83 ± 0.11 (37 °C).

Regarding CAGCAGCAAUAUUACGGGGA, the “self-splicing fitness (ln)” value is, setting by setting: (30 °C) -1.98 ± 0.18; (37 °C) -2.22 ± 0.19.

With UUAUAGCAAUAUUACGAAUU, the “self-splicing fitness (ln)” value is -3.24 ± 0.33 (30 °C) and -0.681 ± 0.25 (37 °C).

On to AACAAGCAAUAUUACGAUUC, for which the “self-splicing fitness (ln)” value (30 °C) is -1.61 ± 0.11 and the “self-splicing fitness (ln)” value (37 °C) is -0.551 ± 0.12.

On to GGUUAGCAAUAUUACGGGGU, for which the “self-splicing fitness (ln)” value (30 °C) was -3.61 ± 0.4 and the “self-splicing fitness (ln)” value (37 °C) was -0.0656 ± 0.17.

For CAAUAGCAAUAUUACGAAGU, the “self-splicing fitness (ln)” value is -3.76 ± 0.15 (30 °C) and -2.64 ± 0.15 (37 °C).

Regarding UUCAAGCAAUAUUACGUUGC, the “self-splicing fitness (ln)” value (37 °C) was -3.55 ± 0.46.

With GGGUAGCAAUAUUACGGGAU, the “self-splicing fitness (ln)” value reads like this: (30 °C) -3.17 ± 0.22; (37 °C) -2.04 ± 0.23.

Regarding CAUCAGCAAUAUUACGCUAG, the “self-splicing fitness (ln)” value reads like this: (30 °C) -0.614 ± 0.075; (37 °C) -0.102 ± 0.093.

Turning to UACAAGCAAUAUUACGAUCA, the “self-splicing fitness (ln)” value was -0.336 ± 0.079 (30 °C) and 0.387 ± 0.11 (37 °C).

Turning to CUCAAGCAAUAUUACGCAGG, the “self-splicing fitness (ln)” value was -2.99 ± 0.23 (30 °C) and -2.84 ± 0.31 (37 °C).

Consider UUGCAGCAAUAUUACGCUGG, for which the “self-splicing fitness (ln)” value (30 °C) was -3.51 ± 0.32.

In the case of GUCUAGCAAUAUUACGCAGU, the “self-splicing fitness (ln)” value by setting is: (30 °C) -1.25 ± 0.13; (37 °C) 0.0079 ± 0.15.

Take AGAAAGCAAUAUUACGGGCG: the “self-splicing fitness (ln)” value reads like this: (30 °C) -0.886 ± 0.1; (37 °C) -0.328 ± 0.12.

Take CUCAAGCAAUAUUACGGGUU: the “self-splicing fitness (ln)” value is, setting by setting: (30 °C) -3.49 ± 0.17; (37 °C) -1.4 ± 0.13.

Turning to GGUAAGCAAUAUUACGGAUU, the “self-splicing fitness (ln)” value (30 °C) was -0.823 ± 0.094 and the “self-splicing fitness (ln)” value (37 °C) is -0.646 ± 0.11.

For the sequence UUGGAGCAAUAUUACGGGAU, the “self-splicing fitness (ln)” value (37 °C) is -2.77 ± 0.4.

Take ACCUAGCAAUAUUACGAUCU: the “self-splicing fitness (ln)” value reads like this: (30 °C) -0.35 ± 0.079; (37 °C) 0.0427 ± 0.1.

With UAGCAGCAAUAUUACGCGUC, the “self-splicing fitness (ln)” value was -3.43 ± 0.2 (30 °C) and -2.87 ± 0.22 (37 °C).

In the case of GCUAAGCAAUAUUACGCGUA, the “self-splicing fitness (ln)” value is, setting by setting: (30 °C) -1.26 ± 0.12; (37 °C) -0.718 ± 0.14.

As for AUCUAGCAAUAUUACGUAUG, the “self-splicing fitness (ln)” value runs as follows: (30 °C) -2.41 ± 0.13; (37 °C) -1.55 ± 0.17.

As for AUAUAGCAAUAUUACGAGAG, the “self-splicing fitness (ln)” value (37 °C) was -2.29 ± 0.22.

Turning to GUAAAGCAAUAUUACGCGAA, the “self-splicing fitness (ln)” value (30 °C) was -0.868 ± 0.08 and the “self-splicing fitness (ln)” value (37 °C) is -1.25 ± 0.1.

For the sequence GCGCAGCAAUAUUACGAAAA, the “self-splicing fitness (ln)” value (30 °C) was -1.92 ± 0.21 and the “self-splicing fitness (ln)” value (37 °C) is -1.7 ± 0.21.

As for CACUAGCAAUAUUACGUACA, the “self-splicing fitness (ln)” value runs as follows: (30 °C) -2.35 ± 0.21; (37 °C) -1.29 ± 0.4.

CAGAAGCAAUAUUACGCCUG: the “self-splicing fitness (ln)” value by setting is: (30 °C) -2.25 ± 0.23; (37 °C) -3.94 ± 0.39.

Regarding UAUCAGCAAUAUUACGCCAG, the “self-splicing fitness (ln)” value was -0.548 ± 0.15 (30 °C) and -0.584 ± 0.18 (37 °C).

Turning to CCUGAGCAAUAUUACGAUCG, the “self-splicing fitness (ln)” value was -3.71 ± 0.27 (30 °C) and -3.46 ± 0.3 (37 °C).

For GUAUAGCAAUAUUACGGGGA, the “self-splicing fitness (ln)” value was -2.52 ± 0.22 (30 °C) and -2.83 ± 0.38 (37 °C).

On to ACCAAGCAAUAUUACGGAUA, for which the “self-splicing fitness (ln)” value is -2.56 ± 0.14 (30 °C) and -1.56 ± 0.12 (37 °C).

As for UAUUAGCAAUAUUACGGGAU, the “self-splicing fitness (ln)” value (37 °C) was -2.61 ± 0.41.

Turning to GGUCAGCAAUAUUACGGGUU, the “self-splicing fitness (ln)” value is -1.25 ± 0.083 (30 °C) and -0.194 ± 0.089 (37 °C).

With CGUAAGCAAUAUUACGUAUC, the “self-splicing fitness (ln)” value runs as follows: (30 °C) -3.12 ± 0.24; (37 °C) -3.6 ± 0.24.

For the sequence GUCAAGCAAUAUUACGAGGA, the “self-splicing fitness (ln)” value runs as follows: (30 °C) -3.75 ± 0.47; (37 °C) -4.45 ± 0.45.

Take CUCGAGCAAUAUUACGAACA: the “self-splicing fitness (ln)” value reads like this: (30 °C) -1.56 ± 0.41; (37 °C) -2.03 ± 0.49.

Take UCACAGCAAUAUUACGUUCA: the “self-splicing fitness (ln)” value was -0.499 ± 0.074 (30 °C) and -0.438 ± 0.078 (37 °C).

For the sequence AUUAAGCAAUAUUACGUGGA, the “self-splicing fitness (ln)” value by setting is: (30 °C) -3.32 ± 0.2; (37 °C) -1.05 ± 0.12.

On to AUCUAGCAAUAUUACGCGUG, for which the “self-splicing fitness (ln)” value is, setting by setting: (30 °C) -1.23 ± 0.1; (37 °C) -1.01 ± 0.12.

Regarding GCGGAGCAAUAUUACGAAAU, the “self-splicing fitness (ln)” value was -2.94 ± 0.5 (30 °C) and -1.23 ± 0.42 (37 °C).

With UCCGAGCAAUAUUACGCUGU, the “self-splicing fitness (ln)” value is -3.1 ± 0.19 (30 °C) and -0.655 ± 0.16 (37 °C).

In the case of UGGAAGCAAUAUUACGUAAA, the “self-splicing fitness (ln)” value reads like this: (30 °C) -2.28 ± 0.21; (37 °C) 0.0471 ± 0.21.

Consider AGAUAGCAAUAUUACGAAAA, for which the “self-splicing fitness (ln)” value runs as follows: (30 °C) -2.71 ± 0.24; (37 °C) -2.12 ± 0.22.

Take UCUCAGCAAUAUUACGGCAG: the “self-splicing fitness (ln)” value reads like this: (30 °C) -3.36 ± 0.31; (37 °C) -0.98 ± 0.19.

As for ACACAGCAAUAUUACGAAAU, the “self-splicing fitness (ln)” value (30 °C) is -2.47 ± 0.13 and the “self-splicing fitness (ln)” value (37 °C) is -1.87 ± 0.12.

In the case of CGAGAGCAAUAUUACGUCAU, the “self-splicing fitness (ln)” value is -3.96 ± 0.4 (30 °C) and -1.78 ± 0.33 (37 °C).

In the case of CCGCAGCAAUAUUACGCCAG, the “self-splicing fitness (ln)” value (30 °C) is -0.493 ± 0.091 and the “self-splicing fitness (ln)” value (37 °C) was -0.22 ± 0.14.

In the case of AGGUAGCAAUAUUACGUGCU, the “self-splicing fitness (ln)” value was -0.841 ± 0.014 (30 °C) and -0.391 ± 0.033 (37 °C).

In the case of UCAUAGCAAUAUUACGUCAU, the “self-splicing fitness (ln)” value (30 °C) was -2.74 ± 0.29 and the “self-splicing fitness (ln)” value (37 °C) was -3.16 ± 0.27.

UUUGAGCAAUAUUACGAGCG: the “self-splicing fitness (ln)” value (37 °C) is -1.88 ± 0.35.

Regarding CAAUAGCAAUAUUACGAGCA, the “self-splicing fitness (ln)” value was -2.05 ± 0.34 (30 °C) and -0.415 ± 0.3 (37 °C).

Consider AAAUAGCAAUAUUACGCCAC, for which the “self-splicing fitness (ln)” value was -3.22 ± 0.36 (30 °C) and -2.18 ± 0.5 (37 °C).

(Values after the supplement of paper PMC7877785.)
